Measurements: patent US20210072228A1 (UT BATTELLE, published 2021)

Target: the molecule itself
Assay: size exclusion chromatography (homodimerization) of GFP-tagged PAN domain purified from HEK293 cells
Excerpt: These cysteine residues coordinate three disulfide bridges to form a hairpin structure. The inventors hypothesized that cysteine rich PAN domain of G-lecRLKs form disulfide bonds involved in dimerization and subsequent receptor proteolysis to prevent downstream signaling cascades. To address this hypothesis, a GFP tagged PAN domain construct of RLK5 was made. In addition, mutated amino acids in the RLK5 vestigial domain were restored to consensus PAN domain amino acids based on the alignment in FIG. 1, this construct was designated RLK5-restored (RLK5R). Both RLK5 and RLK5R constructs were transfected and overexpressed in HEK293 cells. Proteins were purified on GFP column and loaded into size exclusion column (SEC) to analyze the oligomeric state.

B1: GFP tagged PAN domain construct of RLK5 (SapurV1A.0037s0270.1) (receptor)
chain: DSDYNMDTYEHTFLYGIYPPNEAIIIASLQQCREVCMQDPGCTAATFTNDGTSQCRMKTSPYFSGHQNPSLSSISFVKT
notes: It was expressed in HEK293 cells and purified on a GFP column; not shown: GFP tag
binding result: no binding
